Assay results taken from patent publication US20030166571A1 (SYNVAX, published 2003).
Square brackets hold non-standard residues; d marks the D form. * marks the point of attachment. Heptanoyl = CCCCCCC(=O)*; Hexanoyl = CCCCCC(=O)*; Propionyl = CCC(=O)*; Butyryl = CCCC(=O)*

What was measured:
[1] = target: T1, human ORL-1 receptor (opioid receptor like 1) (human, UniProt P41146 1-370); experiment: cell-based or functional assay
[2] = target: T1, human ORL-1 receptor (opioid receptor …); experiment: [3H]nociceptin displacement at ORL1

T1 sequence (P41146 whole entry): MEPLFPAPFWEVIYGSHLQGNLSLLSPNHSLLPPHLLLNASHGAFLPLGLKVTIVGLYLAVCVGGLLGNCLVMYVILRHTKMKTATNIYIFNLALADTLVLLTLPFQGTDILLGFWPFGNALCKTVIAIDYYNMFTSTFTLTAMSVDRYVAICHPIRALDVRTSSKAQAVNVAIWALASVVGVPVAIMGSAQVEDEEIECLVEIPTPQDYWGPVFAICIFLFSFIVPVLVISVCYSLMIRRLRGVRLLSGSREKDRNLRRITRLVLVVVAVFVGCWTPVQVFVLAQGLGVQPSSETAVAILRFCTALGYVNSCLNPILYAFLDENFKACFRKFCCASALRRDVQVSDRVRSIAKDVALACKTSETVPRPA

Binder	[^35S]GTPγS Binding EC50 [1] [nM]	[^35S]GTPγS Binding Percent Stimulation [1] [%]	IC50 [2] [nM]
Propionyl-RYYRWR-NH2 (SMILES CCC(=O)N[C@@H](CCCNC(=N)N)C(=O)N[C@@H](Cc1ccc(O)cc1)C(=O)N[C@@H](Cc1ccc(O)cc1)C(=O)N[C@@H](CCCNC(=N)N)C(=O)N[C@@H](Cc1c[nH]c2ccccc12)C(=O)N[C@@H](CCCNC(=N)N)C(N)=O, see recheck) [IV-16-C Propionyl-RYYRWR-NH2]	22.3	82	1.2
Hexanoyl-RYYRWR-NH2 (SMILES CCCCCC(=O)N[C@@H](CCCNC(=N)N)C(=O)N[C@@H](Cc1ccc(O)cc1)C(=O)N[C@@H](Cc1ccc(O)cc1)C(=O)N[C@@H](CCCNC(=N)N)C(=O)N[C@@H](Cc1c[nH]c2ccccc12)C(=O)N[C@@H](CCCNC(=N)N)C(N)=O) [IV-17-C Hexanoyl-RYYRWR-NH2]	–	18	2.6
Heptanoyl-RYYRWR-NH2 (SMILES CCCCCCC(=O)N[C@@H](CCCNC(=N)N)C(=O)N[C@@H](Cc1ccc(O)cc1)C(=O)N[C@@H](Cc1ccc(O)cc1)C(=O)N[C@@H](CCCNC(=N)N)C(=O)N[C@@H](Cc1c[nH]c2ccccc12)C(=O)N[C@@H](CCCNC(=N)N)C(N)=O, see recheck) [IV-18-C Heptanoyl-RYYRWR-NH2]	16.9	54	2.6
Ac-RYYRWR-NH2 (also called parent peptide) [Ac-RYYRWR-NH2]	1.2	100	0.72
Ac-R[dY]Y[dR]WR-NH2 (It is not clear from the print which residues the (D) marks belong to, nor whether the last Arg is missing on purpose) [IV-12-B Ac-RY(D)YR(D)WNH2]	> 10000	< 10	1140
Butyryl-RYYRWR-NH2 (SMILES CCCC(=O)N[C@@H](CCCNC(=N)N)C(=O)N[C@@H](Cc1ccc(O)cc1)C(=O)N[C@@H](Cc1ccc(O)cc1)C(=O)N[C@@H](CCCNC(=N)N)C(=O)N[C@@H](Cc1c[nH]c2ccccc12)C(=O)N[C@@H](CCCNC(=N)N)C(N)=O) [IV-15-A Butryl-RYYRWR-NH2]	35.3	63	4.3
